“And” between values parts separate entries of the source, which are not always exact repeats. Identical values can stand only once. * marks the point of attachment. Stearoyl = CCCCCCCCCCCCCCCCCC(=O)*; Palmitoyl = CCCCCCCCCCCCCCCC(=O)*; Lauroyl = CCCCCCCCCCCC(=O)*; Octanoyl = CCCCCCCC(=O)*
B1: LP-65 (peptide)
peptide: Ac-IEELLKKAEEQQKKNEEELKKLEK(Palmitoyl)-NH2
SMILES: CCCCCCCCCCCCCCCC(=O)NCCCC[C@H](NC(=O)[C@H](CCC(=O)O)NC(=O)[C@H](CC(C)C)NC(=O)[C@H](CCCCN)NC(=O)[C@H](CCCCN)NC(=O)[C@H](CC(C)C)NC(=O)[C@H](CCC(=O)O)NC(=O)[C@H](CCC(=O)O)NC(=O)[C@H](CCC(=O)O)NC(=O)[C@H](CC(N)=O)NC(=O)[C@H](CCCCN)NC(=O)[C@H](CCCCN)NC(=O)[C@H](CCC(N)=O)NC(=O)[C@H](CCC(N)=O)NC(=O)[C@H](CCC(=O)O)NC(=O)[C@H](CCC(=O)O)NC(=O)[C@H](C)NC(=O)[C@H](CCCCN)NC(=O)[C@H](CCCCN)NC(=O)[C@H](CC(C)C)NC(=O)[C@H](CC(C)C)NC(=O)[C@H](CCC(=O)O)NC(=O)[C@H](CCC(=O)O)NC(=O)[C@@H](NC(C)=O)[C@@H](C)CC)C(N)=O
notes: N-terminally truncated, based on LP-52; 24 amino acids
B2: LP-63 (peptide)
peptide: Ac-QKIEELLKKAEEQQKKNEEELKKLEK(Palmitoyl)-NH2
SMILES: CCCCCCCCCCCCCCCC(=O)NCCCC[C@H](NC(=O)[C@H](CCC(=O)O)NC(=O)[C@H](CC(C)C)NC(=O)[C@H](CCCCN)NC(=O)[C@H](CCCCN)NC(=O)[C@H](CC(C)C)NC(=O)[C@H](CCC(=O)O)NC(=O)[C@H](CCC(=O)O)NC(=O)[C@H](CCC(=O)O)NC(=O)[C@H](CC(N)=O)NC(=O)[C@H](CCCCN)NC(=O)[C@H](CCCCN)NC(=O)[C@H](CCC(N)=O)NC(=O)[C@H](CCC(N)=O)NC(=O)[C@H](CCC(=O)O)NC(=O)[C@H](CCC(=O)O)NC(=O)[C@H](C)NC(=O)[C@H](CCCCN)NC(=O)[C@H](CCCCN)NC(=O)[C@H](CC(C)C)NC(=O)[C@H](CC(C)C)NC(=O)[C@H](CCC(=O)O)NC(=O)[C@H](CCC(=O)O)NC(=O)[C@@H](NC(=O)[C@H](CCCCN)NC(=O)[C@H](CCC(N)=O)NC(C)=O)[C@@H](C)CC)C(N)=O
notes: N-terminally truncated, based on LP-52; also called P63 with C16
B3: LP-88 (peptide)
peptide: Ac-EQKIEELLKKAEEQQKKNEEELKKLEK(Stearoyl)-NH2
SMILES: CCCCCCCCCCCCCCCCCC(=O)NCCCC[C@H](NC(=O)[C@H](CCC(=O)O)NC(=O)[C@H](CC(C)C)NC(=O)[C@H](CCCCN)NC(=O)[C@H](CCCCN)NC(=O)[C@H](CC(C)C)NC(=O)[C@H](CCC(=O)O)NC(=O)[C@H](CCC(=O)O)NC(=O)[C@H](CCC(=O)O)NC(=O)[C@H](CC(N)=O)NC(=O)[C@H](CCCCN)NC(=O)[C@H](CCCCN)NC(=O)[C@H](CCC(N)=O)NC(=O)[C@H](CCC(N)=O)NC(=O)[C@H](CCC(=O)O)NC(=O)[C@H](CCC(=O)O)NC(=O)[C@H](C)NC(=O)[C@H](CCCCN)NC(=O)[C@H](CCCCN)NC(=O)[C@H](CC(C)C)NC(=O)[C@H](CC(C)C)NC(=O)[C@H](CCC(=O)O)NC(=O)[C@H](CCC(=O)O)NC(=O)[C@@H](NC(=O)[C@H](CCCCN)NC(=O)[C@H](CCC(N)=O)NC(=O)[C@H](CCC(=O)O)NC(C)=O)[C@@H](C)CC)C(N)=O
B4: LP-51 (peptide)
peptide: Ac-LEANIEELLKKAEEQQKKNEEELKKLEK(Palmitoyl)-NH2
SMILES: CCCCCCCCCCCCCCCC(=O)NCCCC[C@H](NC(=O)[C@H](CCC(=O)O)NC(=O)[C@H](CC(C)C)NC(=O)[C@H](CCCCN)NC(=O)[C@H](CCCCN)NC(=O)[C@H](CC(C)C)NC(=O)[C@H](CCC(=O)O)NC(=O)[C@H](CCC(=O)O)NC(=O)[C@H](CCC(=O)O)NC(=O)[C@H](CC(N)=O)NC(=O)[C@H](CCCCN)NC(=O)[C@H](CCCCN)NC(=O)[C@H](CCC(N)=O)NC(=O)[C@H](CCC(N)=O)NC(=O)[C@H](CCC(=O)O)NC(=O)[C@H](CCC(=O)O)NC(=O)[C@H](C)NC(=O)[C@H](CCCCN)NC(=O)[C@H](CCCCN)NC(=O)[C@H](CC(C)C)NC(=O)[C@H](CC(C)C)NC(=O)[C@H](CCC(=O)O)NC(=O)[C@H](CCC(=O)O)NC(=O)[C@@H](NC(=O)[C@H](CC(N)=O)NC(=O)[C@H](C)NC(=O)[C@H](CCC(=O)O)NC(=O)[C@H](CC(C)C)NC(C)=O)[C@@H](C)CC)C(N)=O
B5: LP-92 (peptide)
peptide: Ac-IEELLKKAEEQQKKNEEELKK(Stearoyl)-NH2
SMILES: CCCCCCCCCCCCCCCCCC(=O)NCCCC[C@H](NC(=O)[C@H](CCCCN)NC(=O)[C@H](CC(C)C)NC(=O)[C@H](CCC(=O)O)NC(=O)[C@H](CCC(=O)O)NC(=O)[C@H](CCC(=O)O)NC(=O)[C@H](CC(N)=O)NC(=O)[C@H](CCCCN)NC(=O)[C@H](CCCCN)NC(=O)[C@H](CCC(N)=O)NC(=O)[C@H](CCC(N)=O)NC(=O)[C@H](CCC(=O)O)NC(=O)[C@H](CCC(=O)O)NC(=O)[C@H](C)NC(=O)[C@H](CCCCN)NC(=O)[C@H](CCCCN)NC(=O)[C@H](CC(C)C)NC(=O)[C@H](CC(C)C)NC(=O)[C@H](CCC(=O)O)NC(=O)[C@H](CCC(=O)O)NC(=O)[C@@H](NC(C)=O)[C@@H](C)CC)C(N)=O
B6: LP-89 (peptide)
peptide: Ac-KIEELLKKAEEQQKKNEEELKKLEK(Stearoyl)-NH2
SMILES: CCCCCCCCCCCCCCCCCC(=O)NCCCC[C@H](NC(=O)[C@H](CCC(=O)O)NC(=O)[C@H](CC(C)C)NC(=O)[C@H](CCCCN)NC(=O)[C@H](CCCCN)NC(=O)[C@H](CC(C)C)NC(=O)[C@H](CCC(=O)O)NC(=O)[C@H](CCC(=O)O)NC(=O)[C@H](CCC(=O)O)NC(=O)[C@H](CC(N)=O)NC(=O)[C@H](CCCCN)NC(=O)[C@H](CCCCN)NC(=O)[C@H](CCC(N)=O)NC(=O)[C@H](CCC(N)=O)NC(=O)[C@H](CCC(=O)O)NC(=O)[C@H](CCC(=O)O)NC(=O)[C@H](C)NC(=O)[C@H](CCCCN)NC(=O)[C@H](CCCCN)NC(=O)[C@H](CC(C)C)NC(=O)[C@H](CC(C)C)NC(=O)[C@H](CCC(=O)O)NC(=O)[C@H](CCC(=O)O)NC(=O)[C@@H](NC(=O)[C@H](CCCCN)NC(C)=O)[C@@H](C)CC)C(N)=O
B7: LP-55 (peptide)
peptide: Ac-WEQKIEELLKKAEEQQKKNEEELKK(Palmitoyl)-NH2
SMILES: CCCCCCCCCCCCCCCC(=O)NCCCC[C@H](NC(=O)[C@H](CCCCN)NC(=O)[C@H](CC(C)C)NC(=O)[C@H](CCC(=O)O)NC(=O)[C@H](CCC(=O)O)NC(=O)[C@H](CCC(=O)O)NC(=O)[C@H](CC(N)=O)NC(=O)[C@H](CCCCN)NC(=O)[C@H](CCCCN)NC(=O)[C@H](CCC(N)=O)NC(=O)[C@H](CCC(N)=O)NC(=O)[C@H](CCC(=O)O)NC(=O)[C@H](CCC(=O)O)NC(=O)[C@H](C)NC(=O)[C@H](CCCCN)NC(=O)[C@H](CCCCN)NC(=O)[C@H](CC(C)C)NC(=O)[C@H](CC(C)C)NC(=O)[C@H](CCC(=O)O)NC(=O)[C@H](CCC(=O)O)NC(=O)[C@@H](NC(=O)[C@H](CCCCN)NC(=O)[C@H](CCC(N)=O)NC(=O)[C@H](CCC(=O)O)NC(=O)[C@H](Cc1c[nH]c2ccccc12)NC(C)=O)[C@@H](C)CC)C(N)=O
notes: LP-52 without the C-terminal LEK
B8: LP-64 (peptide)
peptide: Ac-KIEELLKKAEEQQKKNEEELKKLEK(Palmitoyl)-NH2
SMILES: CCCCCCCCCCCCCCCC(=O)NCCCC[C@H](NC(=O)[C@H](CCC(=O)O)NC(=O)[C@H](CC(C)C)NC(=O)[C@H](CCCCN)NC(=O)[C@H](CCCCN)NC(=O)[C@H](CC(C)C)NC(=O)[C@H](CCC(=O)O)NC(=O)[C@H](CCC(=O)O)NC(=O)[C@H](CCC(=O)O)NC(=O)[C@H](CC(N)=O)NC(=O)[C@H](CCCCN)NC(=O)[C@H](CCCCN)NC(=O)[C@H](CCC(N)=O)NC(=O)[C@H](CCC(N)=O)NC(=O)[C@H](CCC(=O)O)NC(=O)[C@H](CCC(=O)O)NC(=O)[C@H](C)NC(=O)[C@H](CCCCN)NC(=O)[C@H](CCCCN)NC(=O)[C@H](CC(C)C)NC(=O)[C@H](CC(C)C)NC(=O)[C@H](CCC(=O)O)NC(=O)[C@H](CCC(=O)O)NC(=O)[C@@H](NC(=O)[C@H](CCCCN)NC(C)=O)[C@@H](C)CC)C(N)=O
notes: N-terminally truncated, based on LP-52
B9: LP-62 (peptide)
peptide: Ac-EQKIEELLKKAEEQQKKNEEELKKLEK(Palmitoyl)-NH2
SMILES: CCCCCCCCCCCCCCCC(=O)NCCCC[C@H](NC(=O)[C@H](CCC(=O)O)NC(=O)[C@H](CC(C)C)NC(=O)[C@H](CCCCN)NC(=O)[C@H](CCCCN)NC(=O)[C@H](CC(C)C)NC(=O)[C@H](CCC(=O)O)NC(=O)[C@H](CCC(=O)O)NC(=O)[C@H](CCC(=O)O)NC(=O)[C@H](CC(N)=O)NC(=O)[C@H](CCCCN)NC(=O)[C@H](CCCCN)NC(=O)[C@H](CCC(N)=O)NC(=O)[C@H](CCC(N)=O)NC(=O)[C@H](CCC(=O)O)NC(=O)[C@H](CCC(=O)O)NC(=O)[C@H](C)NC(=O)[C@H](CCCCN)NC(=O)[C@H](CCCCN)NC(=O)[C@H](CC(C)C)NC(=O)[C@H](CC(C)C)NC(=O)[C@H](CCC(=O)O)NC(=O)[C@H](CCC(=O)O)NC(=O)[C@@H](NC(=O)[C@H](CCCCN)NC(=O)[C@H](CCC(N)=O)NC(=O)[C@H](CCC(=O)O)NC(C)=O)[C@@H](C)CC)C(N)=O
notes: as for B8

Biological target: T1, N39 (HIV-1, N-terminal acetyl (Ac-); C-terminal amide (-NH2))
T1 peptide: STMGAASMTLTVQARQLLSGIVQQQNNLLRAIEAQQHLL
Assay: circular dichroism of the 1:1 mixture with N39, 10 µM each in PBS pH 7.2

Row | Binder | helix content of the complex
1 | B1 | 63%
2 | Ac-WEQKIEELLKKAEEQQKKNEEELKKLEK(Palmitoyl)-NH2 [LP-52] | 63.8%

Biological target: T1, N39
Assay: circular dichroism temperature scan at 220 nm of the 1:1 mixture with N39, 10 µM each in PBS pH 7.2

Row | Binder | Tm value of the complex
3 | B1 | > 70 °C and 72.1 °C
4 | B2 | > 70 °C
5 | Ac-WEQKIEELLKKAEEQQKKNEEELKKLEK(Lauroyl)-NH2 [LP-81] | 74.1 °C
6 | B3 | 76.5 °C
7 | B4 | 72 °C
8 | Ac-WEQKIEELLKKAEEQQKKNEEELKKLEK(Palmitoyl)-NH2 [LP-52] | 79.1 °C
9 | Ac-IEELLKKAEEQQKKNEEELKKLEK(Stearoyl)-NH2 [LP-90] | 71.1 °C
10 | Ac-WEQKIEELLKKAEEQQKKNEEELKK(Stearoyl)-NH2 [LP-91] | 61 °C
11 | B5 | 55.1 °C
12 | Ac-WEQKIEELLKKAEEQQKKNEEELKKLEK(Octanoyl)-NH2 [LP-82] | 65.1 °C
13 | B6 | 70 °C
14 | B7 | 63.1 °C
15 | B8 | > 70 °C
16 | B9 | > 70 °C
